Source: patent US7833513B2, “Treatment of Alzheimer's Disease” (Rhode Island Hospital, priority 2004, dated 2010)

Target: T1, IGF-II receptor (Homo sapiens, UniProt P11717)
T1 construct: membrane extracts of postmortem frontal lobe tissue as the sources of receptors; from tissue; host or cells: postmortem frontal lobe tissue, homogenates pooled per Braak stage group
Assay: Saturation binding (Scatchard) of [125I]-IGF-II to postmortem frontal lobe membrane extracts by AD Braak stage
Parameters: unit not given here
Method: Protein concentration was determined using the bicinchoninic acid (BCA) assay (Pierce, Rockford, Ill.). Preliminary studies determined the amounts of protein and concentrations of radiolabeled ligand required to achieve 20% specific binding.
IGF-I binding assays required 25 μg protein per sample, and IGF-II receptor binding assays were performed with 10 μg protein. Equilibrium binding assays were used to assess growth factor binding levels in relation to AD stage severity. This was accomplished by determining net specific binding after incubating the protein samples at 4° C. overnight with a fixed amount of radioligand, in the presence or absence of excess cold ligand and then subtracting the values obtained for non-specific binding from those corresponding to the total binding. To measure total binding, individual protein samples were incubated in 100 μl reactions containing binding buffer (100 mM HEPES, pH 8.0, 118 mM NaCl, 1.2 mM MgSO4, 8.8 mM dextrose, 5 mM KCl, 1% bovine serum albumin) and 100 nCi/ml [^125I] […] To measure non-specific binding, replicate samples were prepared as indicated with the addition of 0.1 μM unlabeled (cold) ligand.
Saturation binding assays were performed to assess top-level (maximum) binding and binding affinity in relation to AD stage severity. Samples from 8-12 brains per Braak stage group were pooled in equal proportions and used to generate binding curves. Protein concentrations of the pooled homogenates were determined with the BCA assay. Duplicate samples were incubated in 100 μl reaction volumes containing binding buffer and 0.0031 to 1 μCi/ml of [^125I] […] To measure non-specific binding, duplicate reactions were incubated with the same concentrations of radiolabeled ligand plus 0.1 μM unlabeled (cold) competitive ligand. The data were graphed and analyzed using the GraphPad Prism 4 software to calculate the Bmax, kD (dissociation constant), and their standard deviations and 95% confidence intervals.
Reactions were performed in 1.5 ml Eppendorff tubes at 4° C. for 16 hours with gentle platform agitation. […] The samples were counted for 1 minute each in an LKB CompuGamma CS Gamma counter. Specific binding was calculated by subtracting CPM or fmol of non-specific binding, i.e., amount bound in the presence of cold ligand, from the total CPM or fmol bound (absence of unlabeled competitive ligand). After determining that the data fit a one-site rather than a two-site model, the results were analyzed using non-linear regression to calculate saturation binding (Bmax) and binding affinity (kD) with Scatchard analysis performed to measure saturation binding and binding affinity using GraphPad Prism 4 software (GraphPad Software, Inc., San Diego, Calif.).

T1 sequence (P11717 41-2491): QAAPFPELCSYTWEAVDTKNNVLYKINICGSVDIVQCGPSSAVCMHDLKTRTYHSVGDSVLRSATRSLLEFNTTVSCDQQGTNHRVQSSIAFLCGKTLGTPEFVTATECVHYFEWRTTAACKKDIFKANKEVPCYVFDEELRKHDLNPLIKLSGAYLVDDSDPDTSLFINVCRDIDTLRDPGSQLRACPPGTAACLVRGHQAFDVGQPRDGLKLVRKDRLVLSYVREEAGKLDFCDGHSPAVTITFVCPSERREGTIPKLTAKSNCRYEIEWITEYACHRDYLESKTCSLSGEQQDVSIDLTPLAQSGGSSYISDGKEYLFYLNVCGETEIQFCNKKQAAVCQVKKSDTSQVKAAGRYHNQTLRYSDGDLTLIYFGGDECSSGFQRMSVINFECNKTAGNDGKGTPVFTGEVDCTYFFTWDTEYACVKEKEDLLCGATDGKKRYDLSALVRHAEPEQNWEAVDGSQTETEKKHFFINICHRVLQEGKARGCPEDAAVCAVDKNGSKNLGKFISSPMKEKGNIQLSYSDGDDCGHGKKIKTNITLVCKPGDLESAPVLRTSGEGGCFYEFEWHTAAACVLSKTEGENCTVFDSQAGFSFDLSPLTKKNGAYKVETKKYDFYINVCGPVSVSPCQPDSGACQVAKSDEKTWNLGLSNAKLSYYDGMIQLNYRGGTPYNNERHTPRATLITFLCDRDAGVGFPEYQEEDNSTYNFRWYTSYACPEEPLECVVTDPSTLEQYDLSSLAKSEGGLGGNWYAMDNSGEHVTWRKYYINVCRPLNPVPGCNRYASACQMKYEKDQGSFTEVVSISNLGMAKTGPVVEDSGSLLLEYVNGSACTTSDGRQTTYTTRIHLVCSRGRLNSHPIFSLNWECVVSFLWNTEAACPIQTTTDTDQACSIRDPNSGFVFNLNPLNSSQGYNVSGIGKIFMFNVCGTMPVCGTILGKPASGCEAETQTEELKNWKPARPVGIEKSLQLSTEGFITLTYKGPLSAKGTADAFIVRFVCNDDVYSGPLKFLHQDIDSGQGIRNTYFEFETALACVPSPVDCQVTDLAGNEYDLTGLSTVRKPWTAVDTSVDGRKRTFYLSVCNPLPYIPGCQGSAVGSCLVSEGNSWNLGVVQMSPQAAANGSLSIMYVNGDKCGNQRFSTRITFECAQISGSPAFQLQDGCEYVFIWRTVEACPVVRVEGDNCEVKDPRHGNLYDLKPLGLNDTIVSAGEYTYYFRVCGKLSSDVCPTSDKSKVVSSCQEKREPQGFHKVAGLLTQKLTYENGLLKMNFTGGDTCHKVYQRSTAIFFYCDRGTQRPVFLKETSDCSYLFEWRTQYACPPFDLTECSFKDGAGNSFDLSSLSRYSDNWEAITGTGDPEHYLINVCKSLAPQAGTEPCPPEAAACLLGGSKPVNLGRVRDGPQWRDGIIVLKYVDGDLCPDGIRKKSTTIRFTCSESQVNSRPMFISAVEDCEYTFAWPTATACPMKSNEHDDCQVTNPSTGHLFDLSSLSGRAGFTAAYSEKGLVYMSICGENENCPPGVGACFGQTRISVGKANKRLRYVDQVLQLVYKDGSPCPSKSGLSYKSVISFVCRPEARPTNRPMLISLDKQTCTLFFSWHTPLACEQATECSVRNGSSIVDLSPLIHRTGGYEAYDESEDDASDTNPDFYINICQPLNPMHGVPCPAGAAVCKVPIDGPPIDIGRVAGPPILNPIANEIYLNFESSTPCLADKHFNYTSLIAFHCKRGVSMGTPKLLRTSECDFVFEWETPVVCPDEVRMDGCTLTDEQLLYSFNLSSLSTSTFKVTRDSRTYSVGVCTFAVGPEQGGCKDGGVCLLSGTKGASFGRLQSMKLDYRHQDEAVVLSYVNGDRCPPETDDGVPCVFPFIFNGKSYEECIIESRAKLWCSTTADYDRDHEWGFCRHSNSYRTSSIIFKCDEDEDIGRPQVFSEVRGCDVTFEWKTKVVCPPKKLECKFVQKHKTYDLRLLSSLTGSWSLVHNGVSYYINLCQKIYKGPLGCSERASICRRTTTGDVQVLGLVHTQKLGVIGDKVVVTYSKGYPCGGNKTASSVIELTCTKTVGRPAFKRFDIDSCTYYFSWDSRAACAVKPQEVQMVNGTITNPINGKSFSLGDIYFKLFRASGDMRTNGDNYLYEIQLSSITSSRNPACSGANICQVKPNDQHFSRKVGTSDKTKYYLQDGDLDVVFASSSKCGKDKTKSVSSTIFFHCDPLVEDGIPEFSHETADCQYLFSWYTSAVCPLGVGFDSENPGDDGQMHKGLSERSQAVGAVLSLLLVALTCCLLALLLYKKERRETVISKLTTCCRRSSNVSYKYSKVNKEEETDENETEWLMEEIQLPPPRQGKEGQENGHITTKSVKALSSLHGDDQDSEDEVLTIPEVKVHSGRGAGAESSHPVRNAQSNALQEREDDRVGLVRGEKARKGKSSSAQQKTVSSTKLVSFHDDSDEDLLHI

BMAX, IGF-II binding (Braak 0-1): 16.83 | BMAX, IGF-II binding (Braak 2-3): 12.53 | BMAX, IGF-II binding (Braak 4-5): 8.136 | BMAX, IGF-II binding (Braak 6): 4.713
Substance: IGF-II: [125I]-labeled IGF-II used as tracer in brain membrane binding assays
